Reference: patent US11046988B2, “Process for the modification of a glycoprotein using a β-(1,4)-N-acetylgalactosaminyl transferase or a mutant thereof” (Synaffix B.V., priority 2014, dated 2021)

B1: TnGalNAcT: truncated Trichoplusia ni β-(1,4)-GalNAcT, amino acids 33-421 of SEQ ID NO: 4 (SEQ ID NO: 8) (protein)
chain: SPLRTYLYTPLYNATQPTLRNVERLAANWPKKIPSNYIEDSEEYSIKNISLSNHTTRASVVHPPSSITETASKLDKNMTIQDGAFAMISPTPLLITKLMDSIKSYVTTEDGVKKAEAVVTLPLCDSMPPDLGPITLNKTELELEWVEKKFPEVEWGGRYSPPNCTARHRVAIIVPYRDRQQHLAIFLNHMHPFLMKQQIEYGIFIVEQEGNKDFNRAKLMNVGFVESQKLVAEGWQCFVFHDIDLLPLDTRNLYSCPRQPRHMSASIDKLHFKLPYEDIFGGVSAMTLEQFTRVNGFSNKYWGWGGEDDDMSYRLKKINYHIARYKMSIARYAMLDHKKSTPNPKRYQLLSQTSKTFQKDGLSTLEYELVQVVQYHLYTHILVNIDERS
modifications: TnGalNAcT(33-421)

Tested on: trimmed trastuzumab (core GlcNAc(Fuc) / core GlcNAc, glycan of formula (1))
Test: Glycosyltransfer of sugar derivative to trimmed (Endo S deglycosylated) trastuzumab, MS analysis
Format: biochemical
Details: for major heavy chain product, F2-GalNAz transfer to core GlcNAc(Fuc)-substituted trastuzumab: UDP-F2-GalNAz 0.4 mM; for conversion of the starting material into two products: UDP-GalNProSH 2 mM
Method: Trimming of IgG glycans was performed using Endo S from Streptococcus pyogenes (commercially available from Genovis, Lund, Sweden). The IgG (10 mg/mL) was incubated with Endo S (40 U/mL) in 25 mM Tris pH 8.0 for approximately 16 hours at 37° C. The deglycosylated IgG was concentrated and washed with 10 mM MnCl2 and 25 mM Tris-HCl pH 8.0 using an Amicon Ultra-0.5, Ultracel-10 Membrane (Millipore).
Trastuzumab was subjected to the trimming protocol above. Analysis of the trimmed antibody was performed on a JEOL AccuToF equipped with an Agilent 1100 HPLC. Samples (2 μL) were reduced with DTT (2 μL) during 10 min and subsequently diluted with H2O (40 μL) prior to injection. […] The two peaks of heavy chain belonged to one major product (49496 Da, 90% of total heavy chain), resulting from core GlcNAc(Fuc) substituted trastuzumab, and a minor product (49351 Da, ±10% of total heavy chain), resulting from core GlcNac substituted trastuzumab. This is an example of a glycoprotein comprising a glycan according to formula (1).
A solution of 50 μg (modified) IgG, 1 M Tris-HCl pH 8.0, 1 mM EDTA and 30 mM DTT with a total volume of approximately 70 μL was incubated for 20 minutes at 37° C. to reduce the disulfide bridges allowing to analyze both light and heavy chain. If present, azide-functionalities are reduced to amines under these conditions. Reduced samples were washed trice with milliQ using an Amicon Ultra-0.5, Ultracel-10 Membrane (Millipore) and concentrated to 10 μM (modified) IgG. The reduced IgG was analyzed by electrospray ionization time-of-flight (ESI-TOF) on a JEOL AccuTOF. Deconvoluted spectra were obtained using Magtran software.
Enzymatic introduction of galactose derivative (e.g. azido-containing sugar) onto IgG was effected with a GalNAc-transferase or a mutant thereof. The deglycosylated IgG (prepared as described above, 10 mg/mL) was incubated with a modified UDP-galactose derivative (e.g. an azido-modified sugar-UDP derivative) (0.4 mM) and GalNAcT (1 mg/mL) in 10 mM MnCl2 and 25 mM Tris-HCl pH 8.0 for 16 hours at 30° C. The functionalized IgG (e.g. azido-functionalized IgG) was incubated with protein A agarose (40 μL per mg IgG) for 2 hours at 4° C. The protein A agarose was washed three times with PBS and the IgG was eluted with 100 mM glycine-HCl pH 2.7. The eluted IgG was neutralized with 1 M Tris-HCl pH 8.0 and concentrated and washed with PBS using an Amicon Ultra-0.5, Ultracel-10 Membrane (Millipore) to a concentration of 15-20 mg/mL.
Enzymatic introduction of galactose derivative (e.g. thio-containing sugar 21) onto IgG was effected with a GalNAc-transferase or a mutant thereof. The deglycosylated IgG (prepared as described above, 10 mg/mL) was incubated with a modified UDP-galactose derivative (e.g. an thio-modified sugar-UDP derivative) (2 mM) and GalNAcT (0.2 mg/mL) in 10 mM MnCl2 and 50 mM Tris-HCl pH 6.0 for 16 hours at 30° C. The functionalized IgG (e.g. thio-functionalized trastuzumab) was incubated with protein A agarose (40 μL per mg IgG) for 1 hours at rt. The protein A agarose was washed three times with TBS (pH 6.0) and the IgG was eluted with 100 mM glycine-HCl pH 2.5. The eluted IgG was neutralized with 1 M Tris-HCl pH 7.0 and concentrated and washed with 50 mM Tris-HCl pH 6.0 using an Amicon Ultra-0.5, Ultracel-10 Membrane (Millipore) to a concentration of 15-20 mg/mL.

[1] = GalNAcT 1 mg/mL, 10 mM MnCl2, pH 8.0, 16 hours, 30° C.
[2] = UDP-GalNAz 0.4 mM, GalNAcT 1 mg/mL, 10 mM MnCl2, pH 8.0, 16 hours, 30° C.

Molecule	major heavy chain product, F2-GalNAz transfer to core GlcNAc(Fuc)-substituted trastuzumab [1]	major product, F2-GalNBAz transfer to core GlcNAc(Fuc) substituted trastuzumab heavy chain (UDP-F2GalNBAz 7 mM, CeGalNAcT 2 mg/mL, 10 mM MnCl2, pH 8.0, 30° C. overnight)	major product, GalNAz transfer to core GlcNAc(Fuc) substituted trastuzumab [2]	minor product, GalNAz transfer to core GlcNAc substituted trastuzumab [2]	conversion of the starting material into two products (CeGalNAcT 1 mg/mL, overnight)	conversion, GalNBzN3 transfer to core GlcNAc(Fuc) substituted trastuzumab (UDP-GalNBzN3 4 mM, TnGalNAcT 0.7 mg/mL, overnight)	conversion of the starting material into two products (TnGalNAcT 0.2 mg/mL, overnight)	conversion, GalNPyrN3 transfer to core GlcNAc(Fuc) substituted trastuzumab (UDP-GalNPyrN3 4 mM, TnGalNAcT 0.5 mg/mL, overnight)
CeGalNAcT: truncated Caenorhabditis elegans β-(1,4)-GalNAcT, amino acids 30-383 of SEQ ID NO: 2 (SEQ ID NO: 6)	approximately 90 % of total heavy chain	approximately 90 % of total heavy chain	90 % of total heavy chain	~10 % of total heavy chain	Full conversion			
B1	approximately 90 % of total heavy chain					About 70%	Full conversion	About 50%
